Here are results for two molecules from US9956304 (GEORGIA STATE UNIVERSITY RESEARCH FOUNDATION, dated 2018).

Test [1] has as its target T1, gastrin-releasing peptide receptor (GRPR) (UniProt P30550 1-384, limits assumed).
T1 construct: whole, on cells; Endogenous receptor on PC3 and H441 cells, xenograft tumors or PC3 cell lysate; the cell lines are human; also called GRP receptor
Description: Scatchard plot experiments, GRPR on cancer cell lines.

Test [2] addresses T1, gastrin-releasing peptide receptor …. Description: Scatchard plot from absorbance-based assay on wells of PC3 cell lysate; Kd of this variant not given.

T1 sequence (P30550 whole entry): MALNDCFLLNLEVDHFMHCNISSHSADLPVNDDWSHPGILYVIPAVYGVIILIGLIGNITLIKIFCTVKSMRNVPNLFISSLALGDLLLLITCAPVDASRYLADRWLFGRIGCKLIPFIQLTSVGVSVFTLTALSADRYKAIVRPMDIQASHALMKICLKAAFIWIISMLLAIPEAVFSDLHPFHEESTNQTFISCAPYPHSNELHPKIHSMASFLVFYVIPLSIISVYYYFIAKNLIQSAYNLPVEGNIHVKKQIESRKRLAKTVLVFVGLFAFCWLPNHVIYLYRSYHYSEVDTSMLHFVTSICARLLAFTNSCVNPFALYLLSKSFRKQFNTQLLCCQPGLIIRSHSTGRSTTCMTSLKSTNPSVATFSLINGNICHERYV

B1: ProCA1.B10 (designed binder)
chain: RDSGTVWGALGHGIELNIPNFQMTDDIDEVRWERGSTLVAEFKRKMKPFLKSGGSGGGNQWAVGHLMGGSGGAFEIDANGDLDIKNLTRDDSGTYNVTVYSTNGTRILNKALDLRILE
As for B1, the binding result in test [1] is on record as “binds”.

B2: ProCA1.G10 (designed binder)
chain: RDSGTVWGALGHGIELNIPNFQMTDDIDEVRWERGSTLVAEFKRKMKPFLKSGGSGGGNHWAVGHLMGGSGGAFEIDANGDLDIKNLTRDDSGTYNVTVYSTNGTRILNKALDLRILE
On to B2, for which the binding result in test [2] is listed as “binds”.
